Patent US20030220250A1

Target: Tie-2 tyrosine kinase receptor on HUVECs (human) (UniProt Q02763)
Test: cell-based or functional assay

UniProt Q02763, sequence (Q02763 23-1124): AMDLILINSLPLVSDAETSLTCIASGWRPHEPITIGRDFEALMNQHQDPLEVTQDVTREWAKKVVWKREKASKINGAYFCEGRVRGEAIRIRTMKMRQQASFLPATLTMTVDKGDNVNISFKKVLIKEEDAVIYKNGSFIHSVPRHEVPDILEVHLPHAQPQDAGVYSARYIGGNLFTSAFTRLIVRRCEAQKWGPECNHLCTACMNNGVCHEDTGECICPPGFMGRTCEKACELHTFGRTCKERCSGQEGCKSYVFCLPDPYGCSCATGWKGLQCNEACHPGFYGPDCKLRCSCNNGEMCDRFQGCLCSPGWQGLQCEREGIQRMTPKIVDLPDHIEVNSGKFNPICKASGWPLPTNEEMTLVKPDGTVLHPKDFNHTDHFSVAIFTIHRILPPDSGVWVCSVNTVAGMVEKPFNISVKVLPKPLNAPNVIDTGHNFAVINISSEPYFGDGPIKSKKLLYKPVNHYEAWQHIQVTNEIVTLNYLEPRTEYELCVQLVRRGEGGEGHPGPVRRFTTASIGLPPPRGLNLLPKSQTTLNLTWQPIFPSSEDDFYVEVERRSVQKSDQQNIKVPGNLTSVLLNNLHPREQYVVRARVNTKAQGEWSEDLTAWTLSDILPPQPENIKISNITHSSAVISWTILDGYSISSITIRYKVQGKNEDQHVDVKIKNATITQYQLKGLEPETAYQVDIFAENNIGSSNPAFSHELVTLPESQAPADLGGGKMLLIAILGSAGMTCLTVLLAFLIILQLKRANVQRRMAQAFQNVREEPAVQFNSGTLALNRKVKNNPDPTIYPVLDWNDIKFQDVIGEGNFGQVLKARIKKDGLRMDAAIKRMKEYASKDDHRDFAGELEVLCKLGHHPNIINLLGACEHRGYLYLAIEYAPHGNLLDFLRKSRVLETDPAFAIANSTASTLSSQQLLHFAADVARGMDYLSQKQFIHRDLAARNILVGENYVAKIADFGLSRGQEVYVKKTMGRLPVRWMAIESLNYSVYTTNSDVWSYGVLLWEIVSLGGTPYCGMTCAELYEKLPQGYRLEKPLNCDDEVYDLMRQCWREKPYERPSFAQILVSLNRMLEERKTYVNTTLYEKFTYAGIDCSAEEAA

Tie-2 phosphorylation in HUVECs after 48 h transwell co-culture (Tie-2 immunoprecipitation, anti-phosphotyrosine Western blot, densitometry), versus co-culture with pcDNA-transfected HT29 cells: 2 fold
Substance: Angiopoietin-1 secreted by HT29 human colon cancer cells stably transfected with full-length Ang-1 cDNA in pcDNA3.1 (from UniProt Q15389 16-498) (ligand)
